# Test results taken from patent publication US20170283834A1, “Processes for Producing A Fermentation Product Using A Fermenting Organism” (Novozymes A/S, priority 2014, published 2017).
# Residue numbers refer to the chain shown, from its start. Numbers in names are those of the source.
# B1: JTP005: protease variant of SEQ ID NO: 3: A112P (protein, listed as Thermoascus aurantiacus)
# chain: MRLVASLTALVALSVPVFPAAVNVKRASSYLEITLSQVSNTLIKAVVQNTGSDELSFVHLNFFKDPAPVKKVSVYRDGSEVQFEGILSRYKSTGLSRDAFTYLAPGESVEDVFDIASTYDLTSGGPVTIRTEGVVPYATANSTDIAGYISYSSNVLTIDVDGAAAATVSKAITPLDRRTRISSCSGSRQSALTTALRNAASLANAAADAAQSGSASKFSEYFKTTSSSTRQTVAARLRAVAREASSSSSGATTYYCDDPYGYCSSNVLAYTLPSYNIIANCDIFYTYLPPLTSTCHAQDQATTALHEFTHAPGVYSPGTDDLAYGYQAAMGLSSSQAVMNADTYALYANAIYLGC
# B2: JTP009: protease variant of SEQ ID NO: 3: D79K (protein, listed as Thermoascus aurantiacus)
# chain: B1 chain with D257K, P290A
# B3: JTP013: protease variant of SEQ ID NO: 3: D79L/S87P/A112P (protein, listed as Thermoascus aurantiacus)
# chain: B1 chain with D257L, S265P
# B4: JTP016: protease variant of SEQ ID NO: 3: A73C (protein, listed as Thermoascus aurantiacus)
# chain: B1 chain with A251C, P290A
# B5: JTP008: protease variant of SEQ ID NO: 3: R2P (protein, listed as Thermoascus aurantiacus)
# chain: B1 chain with R180P, P290A
# B6: JTP019: protease variant of SEQ ID NO: 3: A126V (protein, listed as Thermoascus aurantiacus)
# chain: B1 chain with P290A, A304V
# B7: JTP014: protease variant of SEQ ID NO: 3: D79L/S87P/A112P (protein, listed as Thermoascus aurantiacus)
# chain: B1 chain with D257L, S265P
# B8: JTP012: protease variant of SEQ ID NO: 3: D79L/S87P (protein, listed as Thermoascus aurantiacus)
# chain: B1 chain with D257L, S265P, P290A
# B9: JTP010: protease variant of SEQ ID NO: 3: D79L (protein, listed as Thermoascus aurantiacus)
# chain: B1 chain with D257L, P290A
# B10: JTP004: protease variant of SEQ ID NO: 3: S87P (protein, listed as Thermoascus aurantiacus)
# chain: B1 chain with S265P, P290A
# B11: JTP011: protease variant of SEQ ID NO: 3: D79M (protein, listed as Thermoascus aurantiacus)
# chain: B1 chain with D257M, P290A
# B12: JTP021: protease variant of SEQ ID NO: 3: M152R (protein, listed as Thermoascus aurantiacus)
# chain: B1 chain with P290A, M330R
# B13: JTP036: protease variant of SEQ ID NO: 3: D79L/S87P/D142L (protein, listed as Thermoascus aurantiacus)
# chain: B1 chain with D257L, S265P, P290A, D320L
# Tested on: zein
# Assay: Relative activity assay of protease variants (zein micro titer plate)
# Type: biochemical
# Conditions: Table 2
# Method: Each well contains 200 microL of 0.05-0.1% of zein (Sigma), 0.25 mM ZnSO4 and 1% of agar in 20 mM sodium acetate buffer, pH 4.5.
# Yeast clones on SC-glucose were inoculated to a well of a 96-well micro titre plate containing YPD+Zn medium and cultivated at 28° C. for 3 days. The culture supernatants were applied to a 96-well zein micro titer plate and incubated at at least 2 temperatures (ex. 60° C. and 65° C., 70° C. and 75° C., 70° C. and 80° C.) for more than 4 hours or overnight. The turbidity of zein in the plate was measured as A630 and the relative activity (higher/lower temperatures) was determined as an indicator of thermoactivity improvement. The clones with higher relative activity than the parental variant were selected and the sequence was determined.
row,Molecule,Relative activity 65° C./60° C. [%]
1,B1,43
2,B2,69
3,B3,90
4,B4,52
5,B5,71
6,B6,69
7,B7,88
8,B8,86
9,B9,75
10,B10,45
11,B11,73
12,B12,59

# Same assay, conditions: Table 3
Molecule,Relative activity 70° C./65° C. [%],Relative activity 75° C./65° C. [%]
B13,73,73
